Data as given in publication PMC12014896 (2025).

B1: COVIC-183 (antibody, V domains shown)
VH: EVHLVESGGGLVQPGGSLRLSCAASGFTFSDHYMDWVRQAPGKGLEWVGRTRNKANSYTTEYAASVKGRFTISRDDAKNSLYLQMNSLKTEDTAVYYCARVHRWAYCINGVCFGAYSDYWGQGTLVTVSS
VL: not shown
B2: COVIC-124 (antibody)
chain: QVQLQESGGGLVQAGGSLRLSCAASGRTFSEYAMGWFRQAPGKEREFVATISWSGGSTYYTDSVKGRFTISRDNAKNTVYLQMNSLKPDDTAVYYCAAAGLGTVVSEWDYDYDYWGQGTQVTVSSGGSGGSQVQLQESGGGLVQAGGSLRLSCAASGRTFSEYAMGWFRQAPGKEREFVATISWSGGSTYYTDSVKGRFTISRDNAKNTVYLQMNSLKPDDTAVYYCAAAGLGTVVSEWDYDYDYWGQGTQVTVSSGGGGSGGGGSEPKSCDKTHTCPPCPAPELLGGKKKPLDGEYFTLQIRGRERFEMFRELNEALELKDAQAGKEPGGGGGSGGGGSQVQLQESGGGLVQAGGSLRLSCAASGRTFSEYAMGWFRQAPGKEREFVATISWSGGSTYYTDSVKGRFTISRDNAKNTVYLQMNSLKPDDTAVYYCAAAGLGTVVSEWDYDYDYWGQGTQVTVSSGGSGGSQVQLQESGGGLVQAGGSLRLSCAASGRTFSEYAMGWFRQAPGKEREFVATISWSGGSTYYTDSVKGRFTISRDNAKNTVYLQMNSLKPDDTAVYYCAAAGLGTVVSEWDYDYDYWGQGTQVTVSS
B3: COVIC-168 (antibody, V domains shown)
VH: EVQLVESGGGLIQPGGSLRLSCAASGVTVSSNYMNWVRQAPGKGLEGVSVIYSGGTTYYADSVKGRFTISRDNSKNTLYLQMNSLRAEDTAVYYCARDTVVYGMDVWGQGTTVTVSS
VL: DIQLTQSPSFLSASVGDRVTITCWASQGISSYLAWYQQKPGKAPKLLIYTASTLQSGVPSRFSGSGSGTEFTLTISSLQPEDFATYYCQQLNSYPLTFGGGTKVEIKR
B4: COVIC-313 (antibody)
chain 1: QVQLVQSGAEVKKPGSSVKVSCKASGGTFGISWVRQAPGQGLEWMGRIIPILGTANHAQKFQGRVTITADKSTGTVYMELSSLRSEDTAVYYCARDGDSGSYYETLGFDYWGQGTLVTVSSASTKGPSVFPLAPEVQLVESGGGLVKPGGSLRLSCAASGFTFSPYSMNWVRQAPGKGLEWVSSISVSNIYTYYADSVKGRFTISRDNAKNSLYLQMNSLRAEDTAIYYCARDLKKGGIQYDAFDIWGQGTVVTVSS
chain 2: QSALTQPPSASGSPGQSVTISCTGTSSDVGGYNYVSWYQQHPGKAPKLMIYEVNKRPSGVPDRFSGSKSGNTASLTVSGLQAEDEADYYCSSYAGSNNLVFGGGTKLTVLQPKAAPSVTLFPPEIVLTQSPATLSLSPGERATLSCRASQSVNDYLAWYQQKPGQAPRLLIYDASNRATGFPARFSGSGSGTDFTLTISSLEPEDFAVYYCQQRSNWPPTFGQGTRLEIK
B5: COVIC-134 (antibody, V domains shown)
VH: EVQLVESGGGVVQPGRSLRLSCAASGFTFSSYGMHWVRQAPGKGLEWVAVIWYDGSNKYYADSVKGRFTISRDNSKNTLYLQMNSLRAEDTAVYYCAKGPDILTGYYNYYYYGMDVWGQGTMVTVSS
VL: QSVLTQPPSVSGAPGQRVTISCTGSSSNIGAGYDVHWYQQLPGTAPKLLIYGNSNRPSGVPDRFSGSKSGTSASLAITGLQAEDEADYYCQSYDSSLSGFYVVFGGGTKLTVL
B6: COVIC-366 (antibody, V domains shown)
VH: EVQLVESGGGLVQPGRSLRLSCAASGFSLDDYGMHWVRQAPGKGLEWVSGISWNSGDRGYADSVKGRFTISRDNAKNSLYLQMNSLRAEDTALYYCAKGSGAHYDIMTGARLDYWGQGTLVTVSS
VL: DIQMTQSPSSLSASVGDRVTITCRASQSITNYLNWYQQKPGKVPKLLIYAASILQSGVPSRFSGSGSGTDFTLTISSLQPEDFATYYCQQSYSTPWTFGQGTKVEIKR
B7: COVIC-79 (antibody, V domains shown)
VH: EVQLVESGGGLIQPGGSLRLSCAASGFIVSRNYMIWVRQAPGKGLEWVSVIYSGGSTFYADSVKGRFTISRDNSKNTLYLQMNSLRAEDTAVYYCARDLEVAGAIDYWGQGTLVTVSS
VL: EIVLTQSPGTLSLSPGERATLSCRASQSISSSYLAWYQQKPGQAPRLLIYGATSRATGTPDRFSGSGSGTDFTLTINRLEPEDFAVYYCQQYGSSPGYTFGQGTKLEIK

molecular target: SARS-CoV-2 spike RBD (Wuhan-Hu-1) (Severe acute respiratory syndrome …, UniProt P0DTC2); experiment: SPR

Binder | Kd
B1 | 6.97 nM
B2 | 167 nM
B3 | 24.1 nM
B4 | 0.155 nM
B5 | 90 nM
B6 | 0.0703 nM
B7 | 0.745 nM
